These results are taken from the supplement of paper PMC10567573.

± gives the standard deviation.

A short description of this data set: protein stability index of a GFP-peptide fusion (GPS, HEK-293T) (PSI 1-6); higher = more stable.
Setting [1] is: treatment: DMSO, c terminus: a fixed tail appended.
The mark [2] stands for this setting: treatment: MLN4924 1 uM, 8 h, c terminus: a fixed tail appended.
Where [3] appears, read: treatment: DMSO, c terminus: native.
Setting [4] is: treatment: MLN4924 1 uM, 8 h, c terminus: native.
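Also: 24-mer peptide tiles fused after GFP, lentivirally expressed, FACS-sorted into six equal bins by GFP/DsRed ratio, decoded by Illumina sequencing, PSI is the read-weighted mean bin number.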

Turning to RKVKSTITLDGGVLVHVQKWDGKS [FABP4], the protein stability index is, setting by setting: under setting [1], 3 ± 0.23; under setting [2], 3.15 ± 0.52.

With RLPNRQLISCSEDGSVRIWELREK [WDR41], the protein stability index was 3.23 ± 0.2 under setting [1] and 3.31 ± 0.42 under setting [2].

For RMTGGRPPLPPPDDPATLGPHLGL [DYRK1B], the protein stability index amounted to 4.2 ± 0.2 under setting [1] and 4.26 ± 0.18 under setting [2].

RPPAYSPAQRSHTYTHGLGLHRRP displayed a protein stability index under setting [1] of 3.63 ± 0.28 and a protein stability index under setting [2] of 3.75 ± 0.16.

Turning to RPPGPAGTEQSRGLGHGSTSRGGP [CPOX], the protein stability index by setting is: under setting [1], 4.794 ± 0.018; under setting [2], 4.92 ± 0.33.

Turning to RPVLLSKIEGHQDAVTAALLIPKE [WDFY1], the protein stability index reads like this: under setting [1], 3.87 ± 0.28; under setting [2], 3.94 ± 0.34.

With RQKDLKFLSEEEYWKLQIFFTNVI [CCNC], the protein stability index turned out to be 2.57 ± 0.25 under setting [1] and 2.47 ± 0.83 under setting [2].

On to RQTKKMFCDMDKSLLCLLCSNSQE [TRIM43], for which the protein stability index is, setting by setting: under setting [1], 2.44 ± 0.15; under setting [2], 2.86 ± 0.21.

As for RQVNIRTANCTTANQNCVNKSKLL [KCNA1], the protein stability index under setting [1] is 3.51 ± 0.12 and the protein stability index under setting [2] was found to be 3.48 ± 0.28.

Regarding RREQAAAAPFPSPAPASPAISVVG [TFE3], the protein stability index reads like this: under setting [1], 4.22 ± 0.35; under setting [2], 4.24 ± 0.18.

As to RRKCGQYWPLEKDSRIRFGFLTVT [PTPN9], the protein stability index turned out to be 2.3 ± 0.69 under setting [1] and 2.16 ± 0.47 under setting [2].

As for RRLIKRFSFKSKPKANGNPSPQL [C2CD2L], the protein stability index by setting is: under setting [3], 4.24 ± 0.3; under setting [4], 4.38 ± 0.16.

For RRLPLAFRDATSAPLRKLSVDLIK [DYRK1B], the protein stability index runs as follows: under setting [1], 2.46 ± 0.39; under setting [2], 2.45 ± 0.26.

For the sequence RRNEETPEEGQQPWLCGESFTLAD [GDAP1], the protein stability index turned out to be 5.02 ± 0.13 under setting [1] and 4.99 ± 0.3 under setting [2].

On to RRYVASVSLHDRIYVIGGYDGRSR [KLHL12], for which the protein stability index runs as follows: under setting [1], 2.53 ± 0.31; under setting [2], 2.49 ± 0.5.

Take RSIQGHNDYICPATNQCTIDKNRR [ESR2]: the protein stability index under setting [1] is 3.84 ± 0.43 and the protein stability index under setting [2] was found to be 4.21 ± 0.33.

Turning to RSLNVFVKDDDRLTFHRHPVAQST [SPSB4], the protein stability index is, setting by setting: under setting [1], 3.51 ± 0.3; under setting [2], 3.62 ± 0.29.

Consider RTPRLMPDKESMYYPRVQHYRELL [GDAP1], for which the protein stability index is 2.52 ± 0.17 under setting [1] and 2.61 ± 0.27 under setting [2].

With RTRTATMLCAASGNPDPEITWFKD [PTPRD], the protein stability index reads like this: under setting [1], 3.64 ± 0.15; under setting [2], 3.72 ± 0.35.

In the case of RVEFPRSGRGTGRGGGGGGGGGAP [SRSF1], the protein stability index under setting [1] was determined as 4.7 ± 0.39 and the protein stability index under setting [2] amounted to 4.8 ± 0.28.

RVERRFHFSQSLTVIHDFLFSLKE [FAF2]: the protein stability index reads like this: under setting [1], 2.17 ± 0.15; under setting [2], 2.44 ± 0.23.

As for RWALLSCRGKKPSRIYGQAMAIIN [KLHDC10], the protein stability index amounted to 2.32 ± 0.55 under setting [1] and 2.18 ± 0.32 under setting [2].

RWSLISLSNKNGKNVELKFVDSIR [TENT5C]: the protein stability index under setting [1] amounted to 2.39 ± 0.26 and the protein stability index under setting [2] is 2.36 ± 0.44.

As to RYFYLLENIAWVKSYNICFELEDS [PDS5B], the protein stability index by setting is: under setting [1], 2.75 ± 0.2; under setting [2], 2.05 ± 0.61.

With RYLEAEFKKGNRYIRCQKEVGKSF [SMG5], the protein stability index under setting [1] was determined as 2.57 ± 0.71 and the protein stability index under setting [2] amounted to 2.29 ± 0.21.

In the case of RYTGTTPSPPPGSHYTSPSENMWN [CARM1], the protein stability index is, setting by setting: under setting [1], 3.48 ± 0.23; under setting [2], 3.57 ± 0.23.

Regarding SAAGHLKVVQSLLNHGASVNNTTL [FEM1C], the protein stability index was 3.06 ± 0.21 under setting [1] and 3.13 ± 0.38 under setting [2].

As for SAGEQKTERMDKVGDALEEVLSKA [GADD45A], the protein stability index runs as follows: under setting [1], 5.58 ± 0.18; under setting [2], 5.41 ± 0.26.

As to SAKNTSHPGSGTKVQFNLQFTKPN [SASS6], the protein stability index by setting is: under setting [1], 3.35 ± 0.12; under setting [2], 3.61 ± 0.14.

Take SALATQYMHCVNHAKQSMLEKGG [CHCHD3]: the protein stability index reads like this: under setting [3], 2.81 ± 0.55; under setting [4], 3.02 ± 0.34.

For SASHRPCVNGDVDKPSEPASEEGS [SMG5], the protein stability index runs as follows: under setting [1], 5.49 ± 0.17; under setting [2], 5.641 ± 0.046.

The sequence SDAAFGGILERYWLSSRAAAIKVN [MYORG] displayed a protein stability index under setting [1] of 2.19 ± 0.2 and a protein stability index under setting [2] of 2.17 ± 0.21.

In turn, SDINSLRRILDELTLCRSDLEAQM [KRT33B] gave a protein stability index under setting [1] of 2.85 ± 0.36 and a protein stability index under setting [2] of 2.92 ± 0.38.

SDPSTIEASNFQMDRKTRFIIHGF [PNLIPRP1]: the protein stability index runs as follows: under setting [1], 2.42 ± 0.067; under setting [2], 2.37 ± 0.26.

Regarding SDTRVGAPATGSGTPGPFTKEGGM [CHIT1], the protein stability index runs as follows: under setting [1], 4.76 ± 0.26; under setting [2], 4.98 ± 0.14.

As to SDTTHLVTLGGVLRQQLVVSKELR [KLHL13], the protein stability index under setting [1] is 3.04 ± 0.069 and the protein stability index under setting [2] amounted to 3.1 ± 0.3.

With SDVLTISGTIMKIGIEAKNLASYD [MCOLN1], the protein stability index was determined as 2.39 ± 0.24 under setting [1] and 2.5 ± 0.33 under setting [2].

SDVVGRRSSLLACILLSALGYLLL [MFSD9] came in with a protein stability index under setting [1] of 3.22 ± 0.32 and a protein stability index under setting [2] of 3.19 ± 0.26.

As to SEEKGHPQEESEESNVSMASLGEK [CHGB], the protein stability index is, setting by setting: under setting [1], 5.48 ± 0.21; under setting [2], 5.61 ± 0.19.

As for SEGLVGALMHVMQKRSRAIHSSDE [WAS], the protein stability index came to 3.67 ± 0.3 under setting [1] and 3.79 ± 0.15 under setting [2].

Turning to SEVKEELAGQKDELQLSDLLKQGY [PKD2L1], the protein stability index by setting is: under setting [1], 4.81 ± 0.28; under setting [2], 4.92 ± 0.24.

As to SFGACLREETPRMPSWASARDRQP [ELOA2], the protein stability index under setting [1] stood at 3.4 ± 0.34 and the protein stability index under setting [2] came to 3.13 ± 0.32.

Regarding SFLWQRGRKFLQKHLNASNPTEPA [TOR1AIP2], the protein stability index is 2.86 ± 0.13 under setting [1] and 3.05 ± 0.17 under setting [2].

For SFVKKNVLVTGGFFGGFLLGMAS [FUNDC2], the protein stability index worked out at 3.64 ± 0.15 under setting [3] and 2.96 ± 0.41 under setting [4].

Turning to SGIGREGAKDSYDFFTEIKTITVK [ALDH8A1], the protein stability index stood at 3.27 ± 0.37 under setting [1] and 3.28 ± 0.4 under setting [2].

Consider SGLRMVPEHRAFGSPFGLEEPQWV [ZFYVE21], for which the protein stability index reads like this: under setting [1], 2.8 ± 0.14; under setting [2], 2.93 ± 0.26.

SGPEAARAGGWVSGEEFYMLTRRV [PKD2L1] displayed a protein stability index under setting [1] of 2.69 ± 0.29 and a protein stability index under setting [2] of 2.96 ± 0.49.

Regarding SINTHLGKEQSRRDDLEALGHMFM [CSNK1G3], the protein stability index reads like this: under setting [1], 2.81 ± 0.28; under setting [2], 3.03 ± 0.49.

The sequence SKKLRAILPKQSRKSMLDAGPDSW [LCOR] came in with a protein stability index under setting [1] of 2.71 ± 0.06 and a protein stability index under setting [2] of 3.03 ± 0.44.

Under setting [2], SKPGVYTSYKPYLNRDEEIIKQLQ [DENND6A] yielded a protein stability index of 3.35 ± 0.42.

Turning to SKSADNQEYFERHRWPPVWYLKEE [RHOBTB1], the protein stability index by setting is: under setting [1], 3.4 ± 0.29; under setting [2], 3.43 ± 0.34.

As to SKSTQFEYAWCLVRSKYNDDIRKG [FIS1], the protein stability index stood at 2.26 ± 0.34 under setting [1] and 2.55 ± 0.56 under setting [2].

With SLEDLIFESLPENASHKLEVRLVP [ATE1], the protein stability index by setting is: under setting [1], 2.79 ± 0.3; under setting [2], 2.98 ± 0.3.
